In US20220089722A1 (NANTONG YICHEN BIOPHARMA, published 2022):

Tests used:
CD19 on NALM-6 cells = target: T1, CD19 on NALM-6 cells (UniProt P15391 20-556, limits assumed); assay: cell-based or functional assay
T1 sequence (looked up): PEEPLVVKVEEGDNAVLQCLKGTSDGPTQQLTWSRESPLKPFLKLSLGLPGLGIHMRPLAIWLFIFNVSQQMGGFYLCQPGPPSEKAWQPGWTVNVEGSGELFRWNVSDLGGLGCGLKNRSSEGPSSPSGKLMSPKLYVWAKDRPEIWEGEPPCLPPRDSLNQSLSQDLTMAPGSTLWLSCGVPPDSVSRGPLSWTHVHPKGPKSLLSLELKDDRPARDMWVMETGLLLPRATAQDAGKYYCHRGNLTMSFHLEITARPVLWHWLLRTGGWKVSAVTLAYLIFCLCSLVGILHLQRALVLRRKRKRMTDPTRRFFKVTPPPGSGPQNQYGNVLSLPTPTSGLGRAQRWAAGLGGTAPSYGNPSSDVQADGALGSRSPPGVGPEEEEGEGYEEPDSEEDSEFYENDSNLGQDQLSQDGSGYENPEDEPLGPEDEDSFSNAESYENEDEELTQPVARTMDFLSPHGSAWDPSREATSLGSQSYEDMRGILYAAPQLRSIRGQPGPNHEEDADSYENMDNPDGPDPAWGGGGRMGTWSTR

[1] = target: MICA on PANC-1, BXPC-3 or K562 cells (UniProt Q29983 24-383, limits assumed); assay: cell-based or functional assay
MICA on PANC-1, BXPC-3 or K562 cells, sequence (Q29983 24-383 limits assumed): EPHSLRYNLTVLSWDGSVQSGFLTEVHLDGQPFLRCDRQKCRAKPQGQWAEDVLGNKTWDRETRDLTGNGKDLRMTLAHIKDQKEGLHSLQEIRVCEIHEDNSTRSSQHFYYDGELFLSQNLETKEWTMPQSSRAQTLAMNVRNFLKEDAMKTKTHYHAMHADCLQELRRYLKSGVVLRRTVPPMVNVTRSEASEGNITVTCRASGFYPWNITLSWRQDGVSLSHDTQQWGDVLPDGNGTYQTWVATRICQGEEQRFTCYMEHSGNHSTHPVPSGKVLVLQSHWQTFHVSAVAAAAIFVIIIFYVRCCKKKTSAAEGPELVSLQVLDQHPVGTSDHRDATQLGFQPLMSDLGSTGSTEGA

B1: IgFD-6(anti-CD19/CD3) (bispecific antibody, human IgG1, kappa)
chain 1: EVQLVESGGGLVQPGGSLRLSCAASGFTFNTYAMNWVRQAPGKGLEWVARIRSKYNNYATYYADSVKDRFTISRDDSKNTLYLQMNSLRAEDTAVYYCVRHGNFGNSYVSWFAYWGQGTLVTVSSASTKGPSVFPLAPSSKSTSGGTAALGCLVKDYFPEPVTVSWNSGALTSGVHTFPAVLQSSGLYSLSSVVTVPSSSLGTQTYICNVNHKPSNTKVDKKVEPKSCDKTHTCPPCPAPPVAGPSVFLFPPKPKDTLMISRTPEVTCVVVDVSHEDPEVKFNWYVDGVEVHNAKTKPREEQYNSTYRVVSVLTVLHQDWLNGKEYKCKVSNKGLPSSIEKTISKAKGQPREPQVYTLPPSRDELTKNQVSLTCLVKGFYPSDIAVEWESNGQPENNYKTTPPVLDSDGSFFLYSKLTVDKSRWQQGNVFSCSVMHEALHNHYTQKSLSLSPGKSGGGGSGGGGSGGGGSDIQMTQTTSSLSASLGDRVTISCRASQDISKYLNWYQQKPDGTVKLLIYHTSRLHSGVPSRFSGSGSGTDYSLTISNLEQEDIATYFCQQGNTLPYTFGGGTKLEITGGGGSGGGGSGGGGSEVKLQESGPGLVAPSQSLSVTCTVSGVSLPDYGVSWIRQPPRKGLEWLGVIWGSETTYYNSALKSRLTIIKDNSKSQVFLKMNSLQTDDTAIYYCAKHYYYGGSYAMDYWGQGTSVTVSS
chain 2: QAVVTQEPSLTVSPGGTVTLTCRSSTGAVTTSNYANWVQQKPDHLFRGLIGGTNKRAPGTPARFSGSLLGDKAALTISGAQPEDEAEYYCALWYSNLWVFGGGTKLTVLKRTVAAPSVFIFPPSDEQLKSGTASVVCLLNNFYPREAKVQWKVDNALQSGNSQESVTEQDSKDSTYSLSSTLTLSKADYEKHKVYACEVTHQGLSSPVTKSFNRGECDKTHTCPPCPAPPVAGPSVFLFPPKPKDTLMISRTPEVTCVVVDVSHEDPEVKFNWYVDGVEVHNAKTKPREEQYNSTYRVVSVLTVLHQDWLNGKEYKCKVSNKGLPSSIEKTISKAKGQPREPQVYTLPPSRDELTKNQVSLTCLVKGFYPSDIAVEWESNGQPENNYKTTPPVLDSDGSFFLYSKLTVDKSRWQQGNVFSCSVMHEALHNHYTQKSLSLSPGK
How did the “Promotion for the specific killing effect of PBMCs on target cells by heterodimers (EC50, pM); Nalm-6 cells” value (CD19 on NALM-6 cells) turn out when B1 was run?
The value was 14.9 pM.

B2: IgFD-37(anti-CD3/MICA) (Fc fusion)
chain 1: EVQLVESGGGLVQPGGSLRLSCAASGFTFNTYAMNWVRQAPGKGLEWVARIRSKYNNYATYYADSVKDRFTISRDDSKNTLYLQMNSLRAEDTAVYYCVRHGNFGNSYVSWFAYWGQGTLVTVSSASTKGPSVFPLAPSSKSTSGGTAALGCLVKDYFPEPVTVSWNSGALTSGVHTFPAVLQSSGLYSLSSVVTVPSSSLGTQTYICNVNHKPSNTKVDKKVEPKSCDKTHTCPPCPAPPVAGPSVFLFPPKPKDTLMISRTPEVTCVVVDVSHEDPEVKFNWYVDGVEVHNAKTKPREEQYNSTYRVVSVLTVLHQDWLNGKEYKCKVSNKGLPSSIEKTISKAKGQPREPQVYTLPPCRDELTKNQVSLWCLVKGFYPSDIAVEWESNGQPENNYKTTPPVLDSDGSFFLYSKLTVDKSRWQQGNVFSCSVMHEALHNHYTQKSLSLSPGKGGSGAKLAALKAKLAALKGGGGSFLNSLFNQEVQIPLTESYCGPCPKNWICYKNNCYQFFDESKNWYESQASCMSQNASLLKVYSKEDQDLLKLVKSYHWMGLVHIPTNGSWQWEDGSILSPNLLTIIEMQKGDCALYASSFKGYIENCSTPNTYICMQRTV
chain 2: QAVVTQEPSLTVSPGGTVTLTCRSSTGAVTTSNYANWVQQKPDHLFRGLIGGTNKRAPGTPARFSGSLLGDKAALTISGAQPEDEAEYYCALWYSNLWVFGGGTKLTVLKRTVAAPSVFIFPPSDEQLKSGTASVVCLLNNFYPREAKVQWKVDNALQSGNSQESVTEQDSKDSTYSLSSTLTLSKADYEKHKVYACEVTHQGLSSPVTKSFNRGECDKTHTCPPCPAPPVAGPSVFLFPPKPKDTLMISRTPEVTCVVVDVSHEDPEVKFNWYVDGVEVHNAKTKPREEQYNSTYRVVSVLTVLHQDWLNGKEYKCKVSNKGLPSSIEKTISKAKGQPREPQVCTLPPSRDELTKNQVSLSCAVKGFYPSDIAVEWESNGQPENNYKTTPPVLDSDGSFFLVSKLTVDKSRWQQGNVFSCSVMHEALHNHYTQKSLSLSPGKGGSGAKLAALKAKLAALKGGGGSFLNSLFNQEVQIPLTESYCGPCPKNWICYKNNCYQFFDESKNWYESQASCMSQNASLLKVYSKEDQDLLKLVKSYHWMGLVHIPTNGSWQWEDGSILSPNLLTIIEMQKGDCALYASSFKGYIENCSTPNTYICMQRTV
With B2 as the binder, how does the “Promotion for the specific killing effect of PBMCs on target cells by heterodimers (EC50, pM); K562 cells, LDH assay” value [1] read?
Its value is 1090 pM.

What about the “Promotion for the specific killing effect of PBMCs on target cells by heterodimers (EC50, pM); PANC-1 cells, LDH assay” value [1] of the same binder?
Its value is 676 pM.

B3: IgFD-7(anti-CD19/CD3) (bispecific antibody, human IgG1, kappa)
chain 1: EVQLVESGGGLVQPGGSLRLSCAASGFTFNTYAMNWVRQAPGKGLEWVARIRSKYNNYATYYADSVKDRFTISRDDSKNTLYLQMNSLRAEDTAVYYCVRHGNFGNSYVSWFAYWGQGTLVTVSSASTKGPSVFPLAPSSKSTSGGTAALGCLVKDYFPEPVTVSWNSGALTSGVHTFPAVLQSSGLYSLSSVVTVPSSSLGTQTYICNVNHKPSNTKVDKKVEPKSCDKTHTCPPCPAPPVAGPSVFLFPPKPKDTLMISRTPEVTCVVVDVSHEDPEVKFNWYVDGVEVHNAKTKPREEQYNSTYRVVSVLTVLHQDWLNGKEYKCKVSNKGLPSSIEKTISKAKGQPREPQVYTLPPSRDELTKNQVSLTCLVKGFYPSDIAVEWESNGQPENNYKTTPPVLDSDGSFFLYSKLTVDKSRWQQGNVFSCSVMHEALHNHYTQKSLSLSPGK
chain 2: QAVVTQEPSLTVSPGGTVTLTCRSSTGAVTTSNYANWVQQKPDHLFRGLIGGTNKRAPGTPARFSGSLLGDKAALTISGAQPEDEAEYYCALWYSNLWVFGGGTKLTVLKRTVAAPSVFIFPPSDEQLKSGTASVVCLLNNFYPREAKVQWKVDNALQSGNSQESVTEQDSKDSTYSLSSTLTLSKADYEKHKVYACEVTHQGLSSPVTKSFNRGECDKTHTCPPCPAPPVAGPSVFLFPPKPKDTLMISRTPEVTCVVVDVSHEDPEVKFNWYVDGVEVHNAKTKPREEQYNSTYRVVSVLTVLHQDWLNGKEYKCKVSNKGLPSSIEKTISKAKGQPREPQVYTLPPSRDELTKNQVSLTCLVKGFYPSDIAVEWESNGQPENNYKTTPPVLDSDGSFFLYSKLTVDKSRWQQGNVFSCSVMHEALHNHYTQKSLSLSPGKSGGGGSGGGGSGGGGSDIQMTQTTSSLSASLGDRVTISCRASQDISKYLNWYQQKPDGTVKLLIYHTSRLHSGVPSRFSGSGSGTDYSLTISNLEQEDIATYFCQQGNTLPYTFGGGTKLEITGGGGSGGGGSGGGGSEVKLQESGPGLVAPSQSLSVTCTVSGVSLPDYGVSWIRQPPRKGLEWLGVIWGSETTYYNSALKSRLTIIKDNSKSQVFLKMNSLQTDDTAIYYCAKHYYYGGSYAMDYWGQGTSVTVSS
With B3 as the binder, how does the “Promotion for the specific killing effect of PBMCs on target cells by heterodimers (EC50, pM); Nalm-6 cells” value (CD19 on NALM-6 cells) read?
Its value is 11.7 pM.
